The results in this text go back to paper PMC10251477 (2023).

Positions count from the first letter of the chain named. Names and notes keep the numbering of the source. Bridge positions count the residues as written; N and C are the ends. Square brackets hold non-standard residues; d marks the D form. Primed or numbered codes have the meaning given here. Ends that are not written are not given here. 5/6FAM = 5/6-carboxyfluorescein; S5 = C=CCCC[C@](C)(N)C(=O)O; PEG3′ = not defined here

Assay [1] has as its target T1, MBP-tagged R1441C RocCOR LRRK2.
T1 chain: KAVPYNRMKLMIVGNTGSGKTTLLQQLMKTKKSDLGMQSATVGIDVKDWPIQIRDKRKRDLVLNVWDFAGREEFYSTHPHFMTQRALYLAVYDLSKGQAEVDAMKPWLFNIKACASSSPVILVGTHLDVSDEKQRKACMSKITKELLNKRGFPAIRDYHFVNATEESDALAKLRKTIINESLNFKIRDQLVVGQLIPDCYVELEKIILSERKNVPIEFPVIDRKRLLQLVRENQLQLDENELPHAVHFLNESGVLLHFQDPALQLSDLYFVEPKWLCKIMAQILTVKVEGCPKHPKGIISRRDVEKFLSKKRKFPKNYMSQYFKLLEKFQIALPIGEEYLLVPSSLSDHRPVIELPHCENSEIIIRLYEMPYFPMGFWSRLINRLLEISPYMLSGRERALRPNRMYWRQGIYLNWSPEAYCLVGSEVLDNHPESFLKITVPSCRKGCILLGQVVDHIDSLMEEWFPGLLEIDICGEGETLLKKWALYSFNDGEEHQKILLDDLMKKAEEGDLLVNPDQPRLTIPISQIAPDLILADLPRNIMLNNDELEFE
Description: FP.

The target in assay [2] is T2, MBP-tagged RocCOR LRRK2 (wild type).
T2 chain: T1 chain with C114R
Briefly: FP.

By Kd is commonly meant the constant that tells how readily two partners part at equilibrium. Regarding {5/6FAM-PEG3′}-KGEGE[S5]LLK[S5]WGLYSFNDGEKH[S5]KKL[S5]KL (staple 6-10, 23-27) [FAM ECOR A12G (doubly stapled Elongated COR peptide with A12G)], the figures for the Kd in assay [1] and in assay [2] were 32 nM and 57 nM, respectively.
The corresponding values for {FAM-PEG3′}-KGEGE[S5]LLK[S5]WALYSFNDGEKH[S5]KKL[S5]KL (staple 6-10, 23-27) [FAM ECOR (doubly stapled Elongated COR peptide)] are 24 nM and 45 nM.
